Here are results for six compounds from patent US7943569B2, “Composition and method for providing localized delivery of a therapeutic agent” (The Board of Trustees of the University of Illinois, priority 2005, dated 2011).

Test [1] concerns malignant glioma cell line (U-87MG). As to the kind of experiment: Cell viability of U-87MG glioma cells, modified MTT assay, 24 hours. In kind it is cell-based. The settings on record: U-87MG cell viability (FIG. 1). The procedure:
As a model for cancer, the malignant glioma cell line (U-87MG, ATCC #HTB-14) was grown and maintained in Eagles Minimum Essential Media with 10% fetal bovine serum, 1% penicillin/streptomycin, sodium pyruvate (110 mg/L), L-Glutamine (292 mg/L), and nonessential amino acids at 37° C. in 5% CO2. One day prior to the test, cells were plated at 50,000 cells/mL in supplemented media on 96-well plates. Peptides at different concentrations were incubated with cells for 24 hours. Cell viability, with respect to the untreated control, was determined using a modified MTT assay (CELL TITER […] 96® Aqueous One Solution Cell Proliferation Assay; PROMEGA, Madison, Wis.) (Barltrop, et al. (1991) Bioorg. Med. Chem. Lett. 1:661).
To synthesize Pt-complexes, peptides were dissolved in water and equimolar amounts of potassium tetrachloroplatinate (K2PtCl4) (Acros Organics, Morris Plains, N.J.) were added to each peptide solution. The solutions were stirred for 20 hours and lyophilized.

Test [2] has as its target T1, MMP-2 (Homo sapiens, UniProt P08253).
T1 construct: purchased CALBIOCHEM (San Diego, Calif.)
T1 sequence (P08253 110-660): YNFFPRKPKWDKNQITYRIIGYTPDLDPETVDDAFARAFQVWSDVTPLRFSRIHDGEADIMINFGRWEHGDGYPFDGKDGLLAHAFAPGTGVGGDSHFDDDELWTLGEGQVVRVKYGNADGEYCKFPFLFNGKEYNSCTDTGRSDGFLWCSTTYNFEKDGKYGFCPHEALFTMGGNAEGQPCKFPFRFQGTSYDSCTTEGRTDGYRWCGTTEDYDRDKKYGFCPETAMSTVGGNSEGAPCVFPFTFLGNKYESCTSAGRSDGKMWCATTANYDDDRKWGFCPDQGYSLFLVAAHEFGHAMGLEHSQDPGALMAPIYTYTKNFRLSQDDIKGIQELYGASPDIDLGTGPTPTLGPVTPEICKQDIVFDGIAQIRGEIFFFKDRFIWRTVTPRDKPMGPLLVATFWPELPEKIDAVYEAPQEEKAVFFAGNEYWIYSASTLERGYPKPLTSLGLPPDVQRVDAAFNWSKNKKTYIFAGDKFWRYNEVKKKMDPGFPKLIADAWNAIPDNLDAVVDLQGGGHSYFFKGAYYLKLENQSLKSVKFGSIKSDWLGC
The settings on record: MMP-2, Turk et al. (2001); cited from earlier work.

The target of the next test is T2, MMP-9 (Homo sapiens, UniProt P14780).
T2 construct: purchased CALBIOCHEM (San Diego, Calif.)
In words: Peptide cleavage by activated MMP-9, HPLC. Format: biochemical. The settings on record: for Km / Vmax / kcat: MMP-9 10 nM, protease buffer pH 7.4. The procedure:
(§1) Prospective MMP substrate peptides, Lys*-Pro-Ala-Gly-Leu-Leu-Gly-Cys (SEQ ID NO:2), Lys*-Ala-Gly-Leu-Leu-Cys (SEQ ID NO:32), and Lys*-Gly-Leu-Cys (SEQ ID NO:33), were dissolved in a protease buffer containing Tris-HCl (50 mM), NaCl (0.2 M), CaCl2.2H2O (10 mM), BRIJ-35 (0.05%) and ZnSO4.7H2O (50 μM) (pH=7.4). Activated MMP-2 or MMP-9 was added to the peptide solution at a final concentration of 10 nM. At predetermined time intervals, the reaction was stopped by adding EDTA solution (25 mM). Samples were analyzed using reverse phase high pressure liquid chromatography (HPLC). The HPLC system was composed of a gradient pump connected to a scanning fluorescence detector and a photodiode array detector. Peptides were separated on a ZORBAX Extend-C18 (80 Å, 3.6 μm, 4.6 mm×150 mm) column (Agilent Technologies, Palo Alto, Calif.) using a gradient of 30%-70% of 0.1% trifluoroacetic acid in acetonitrile against 0.1% trifluoroacetic acid in water over a period of 15 minutes at a flow rate of 1 mL/minute. The expected cleaved fragments, Lys*-Pro-Ala-Gly (SEQ ID NO:34), Lys*-Ala-Gly, and Lys*-Gly, were synthesized to confirm HPLC retention times. The HPLC retention time of each fragment was compared to that of the cleaved fragment and the intact peptide using the HPLC conditions described above.

Test [3] concerns the target T1, MMP-2. As to the kind of experiment: Peptide cleavage by activated MMP-2, HPLC. In kind it is biochemical. The settings on record: for Km / Vmax / kcat: MMP-2 10 nM, protease buffer pH 7.4. The procedure:
as §1

Read-outs that look alike come from different tables or passages of the source. Primed or numbered codes have the meaning given here. Ends that are not written are not given here. * marks the point of attachment. fluorescein = Lys* = fluorescein containing lysine; fluorescein″ = fluorescein-labelled lysine (Lys*)

As usually defined, the IC50 is the concentration needed to halve the response being measured. Low values mean higher potency, high ones lower potency. What is called Km is the concentration of substrate that gives half-maximal velocity. In general, kcat refers to the maximal rate divided by the concentration of active sites.

T2 sequence (P14780 107-707 limits assumed): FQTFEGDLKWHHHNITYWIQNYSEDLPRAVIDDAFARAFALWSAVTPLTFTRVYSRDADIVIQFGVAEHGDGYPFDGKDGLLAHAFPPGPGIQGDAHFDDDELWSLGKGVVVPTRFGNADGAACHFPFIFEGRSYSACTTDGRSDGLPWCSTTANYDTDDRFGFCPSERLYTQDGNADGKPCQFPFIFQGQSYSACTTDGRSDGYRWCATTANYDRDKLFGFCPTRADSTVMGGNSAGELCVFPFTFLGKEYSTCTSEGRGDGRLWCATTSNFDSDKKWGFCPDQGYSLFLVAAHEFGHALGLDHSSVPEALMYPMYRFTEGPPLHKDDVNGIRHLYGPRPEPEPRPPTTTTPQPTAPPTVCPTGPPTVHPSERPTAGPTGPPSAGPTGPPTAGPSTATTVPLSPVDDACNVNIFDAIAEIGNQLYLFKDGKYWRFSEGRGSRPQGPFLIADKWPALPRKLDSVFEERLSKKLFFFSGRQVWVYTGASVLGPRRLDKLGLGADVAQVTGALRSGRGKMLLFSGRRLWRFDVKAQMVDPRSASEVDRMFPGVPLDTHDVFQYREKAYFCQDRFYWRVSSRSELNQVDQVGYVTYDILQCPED

As to `N.N.[Cl][Pt][Cl]` [cisplatin], in test [1], the IC50 stood at 46.9 ± 15 µM.

Consider “GPAGLLG [parent peptide from which the three peptides were designed]”, for which the cleavage site entry in the test with MMP-2 [2] was “cleaved between glycine and leucine”.

In test [1], `[Cl][Pt-2]([Cl])([Cl])[Cl].[K+].[K+]` [K2PtCl4, potassium tetrachloroplatinate] registered an IC50 of 70.7 ± 15 µM.

Regarding “Lys*-Gly-Leu-Cys (K(fluorescein″)GLC) [prospective MMP substrate peptide with fluorescein containing lysine (Lys*)]”, in the test with MMP-9, the Km was found to be 600 ± 100 µM, the Vmax is listed as 5.3 ± 1 (M/s) × 10^−9 and the kcat stood at 0.21 ± 0.04 s⁻¹. Besides, in the test with MMP-2 [3], the Km stood at 81 ± 20 µM, the Vmax is 0.88 ± 0.1 (M/s) × 10^−9 and the kcat is 0.035 ± 0.006 s⁻¹.

With “Lys*-Pro-Ala-Gly-Leu-Leu-Gly-Cys (K(fluorescein)PAGLLGC) [prospective MMP substrate peptide with fluorescein containing lysine (Lys*)]”, in the test with MMP-9, the Km stood at 400 ± 100 µM, the Vmax is on record as 240 ± 50 (M/s) × 10^−9 and the kcat stood at 9.6 ± 2.1 s⁻¹. In addition, in the test with MMP-9 (cleaved by MMP-9, HPLC comparison with synthesized fragment), the cleavage site entry was “cleaved between glycine and leucine”. Besides, in the test with MMP-2 [3], the Km was 1000 ± 500 µM, the Vmax is reported as 270 ± 120 (M/s) × 10^−9 and the catalytic constant (kcat) came to 10.7 ± 4.8 s⁻¹. For the same compound, the cleavage site entry with MMP-2 [3] (cleaved by MMP-2, HPLC comparison with synthesized fragment) was “cleaved between glycine and leucine”.

In the case of “Lys*-Ala-Gly-Leu-Leu-Cys (K(fluorescein)AGLLC) [prospective MMP substrate peptide with fluorescein containing lysine (Lys*)]”, in the test with MMP-9, the Km worked out at 160 ± 100 µM, the Vmax is reported as 0.99 ± 0.2 (M/s) × 10^−9 and the kcat was found to be 0.04 ± 0.01 s⁻¹. Further, in the test with MMP-2 [3], the Km amounted to 1400 ± 400 µM, the Vmax is 6.02 ± 2.1 (M/s) × 10^−9 and the kcat was 0.24 ± 0.08 s⁻¹.
